Changes are numbered by the printed parent chain. In names and notes the source's numbering stands.
T1: IL-18 receptor (IL-18R) on HEK-Blue IL18R reporter cells (UniProt Q13478 19-541; O95256 20-599, limits assumed)
T1 sequence (looked up) 1: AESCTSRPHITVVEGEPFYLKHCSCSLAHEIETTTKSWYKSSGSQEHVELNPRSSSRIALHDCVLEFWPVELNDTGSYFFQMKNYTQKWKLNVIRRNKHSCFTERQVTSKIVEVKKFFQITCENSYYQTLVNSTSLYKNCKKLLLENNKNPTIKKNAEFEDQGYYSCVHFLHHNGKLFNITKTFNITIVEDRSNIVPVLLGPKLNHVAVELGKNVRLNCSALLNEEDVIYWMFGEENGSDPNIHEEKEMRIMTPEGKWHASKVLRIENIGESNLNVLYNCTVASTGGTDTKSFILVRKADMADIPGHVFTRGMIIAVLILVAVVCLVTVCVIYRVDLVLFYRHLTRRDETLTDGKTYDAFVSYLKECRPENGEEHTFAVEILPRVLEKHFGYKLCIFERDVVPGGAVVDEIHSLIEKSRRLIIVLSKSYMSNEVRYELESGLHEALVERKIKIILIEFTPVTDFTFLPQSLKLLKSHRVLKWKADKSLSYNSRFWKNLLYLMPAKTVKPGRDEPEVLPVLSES
T1 sequence (looked up) 2: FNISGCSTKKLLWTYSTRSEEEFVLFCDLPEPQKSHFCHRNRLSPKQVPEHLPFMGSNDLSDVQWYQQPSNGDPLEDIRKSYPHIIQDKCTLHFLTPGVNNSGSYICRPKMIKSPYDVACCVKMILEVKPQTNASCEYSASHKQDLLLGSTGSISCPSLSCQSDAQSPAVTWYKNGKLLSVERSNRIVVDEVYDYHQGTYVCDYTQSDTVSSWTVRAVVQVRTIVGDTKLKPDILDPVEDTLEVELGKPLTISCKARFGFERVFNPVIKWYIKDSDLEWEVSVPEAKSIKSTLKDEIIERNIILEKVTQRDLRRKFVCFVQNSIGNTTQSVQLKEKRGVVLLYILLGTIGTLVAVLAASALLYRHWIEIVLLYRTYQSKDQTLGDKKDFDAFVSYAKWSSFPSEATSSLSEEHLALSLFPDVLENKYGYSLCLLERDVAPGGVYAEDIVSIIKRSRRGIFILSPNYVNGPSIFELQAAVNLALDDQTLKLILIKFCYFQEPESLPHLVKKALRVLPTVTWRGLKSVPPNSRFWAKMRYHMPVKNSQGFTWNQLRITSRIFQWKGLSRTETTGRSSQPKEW

T2: Fc fused human IL-18Rα (human, UniProt Q13478 19-329, limits assumed)
T2 construct: also called IL-18Rα monomer; human IL-18 receptor alpha (CD218a); not shown: Fc
T2 sequence (looked up): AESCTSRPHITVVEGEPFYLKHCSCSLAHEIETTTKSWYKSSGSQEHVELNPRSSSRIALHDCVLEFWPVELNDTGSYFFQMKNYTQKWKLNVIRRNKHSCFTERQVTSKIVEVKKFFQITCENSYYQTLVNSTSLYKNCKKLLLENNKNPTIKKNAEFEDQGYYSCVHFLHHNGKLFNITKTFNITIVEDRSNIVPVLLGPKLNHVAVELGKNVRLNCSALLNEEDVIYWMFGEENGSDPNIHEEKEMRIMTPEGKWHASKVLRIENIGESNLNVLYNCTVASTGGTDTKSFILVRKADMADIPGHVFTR

T3: IL-18Rα/β heterodimer (Fc fused human IL-18Rα mixed with Fc fused human IL-18Rβ) (human, UniProt Q13478 19-329; O95256 20-356, limits assumed)
T3 construct: Alpha and beta Fc fusions were mixed and pre-incubated for 30 min before capture on anti-human IgG; also called alpha/beta heterodimer IL-18 receptor; heterodimeric human IL-18 receptor alpha (CD218a) and IL-18R accessory protein (IL-18RAP/CDw218b); not shown: Fc
T3 sequence (looked up) 1: T2 sequence (looked up)
T3 sequence (looked up) 2: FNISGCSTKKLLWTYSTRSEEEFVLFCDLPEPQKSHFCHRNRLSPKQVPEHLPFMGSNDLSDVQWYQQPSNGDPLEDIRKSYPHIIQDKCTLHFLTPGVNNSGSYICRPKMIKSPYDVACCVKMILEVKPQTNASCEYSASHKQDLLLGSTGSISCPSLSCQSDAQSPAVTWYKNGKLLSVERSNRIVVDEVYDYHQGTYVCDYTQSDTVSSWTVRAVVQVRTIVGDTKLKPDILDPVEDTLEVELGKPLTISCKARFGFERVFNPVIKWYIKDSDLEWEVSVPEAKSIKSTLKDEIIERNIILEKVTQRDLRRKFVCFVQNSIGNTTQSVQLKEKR

B1: IL-18 variant SEQ ID NO: 241 (N-terminal 4xG, E6K, V11I, C38A, K53A, T63A, C76A, C127A) (ligand)
chain: GGGGYFGKLKSKLSIIRNLNDQVLFIDQGNRPLFEDMTDSDARDNAPRTIFIISMYADSQPRGMAVAISVKCEKISTLSAENKIISFKEMNPPDNIKDTKSDIIFFQRSVPGHDNKMQFESSSYEGYFLAAEKERDLFKLILKKEDELGDRSIMFTVQNED
B2: IL-18 variant SEQ ID NO: 30 with 5 kDa PEG (E6K, V11I, C38A, K53A, T63A, C76A, C127A, C68-5kPEG) (ligand)
chain: YFGKLKSKLSIIRNLNDQVLFIDQGNRPLFEDMTDSDARDNAPRTIFIISMYADSQPRGMAVAISVKCEKISTLSAENKIISFKEMNPPDNIKDTKSDIIFFQRSVPGHDNKMQFESSSYEGYFLAAEKERDLFKLILKKEDELGDRSIMFTVQNED
modifications: 5 kDa PEG on Cys 68 (C68-5kPEG)
notes: also called 30 + PEG5
B3: IL-18 variant SEQ ID NO: 238 (E6K, V11I, C38A, K53A, T63A, C76A, C127A, V153Y) (ligand)
chain: B2 chain with V153Y
B4: IL-18 variant SEQ ID NO: 237 (E6K, V11I, C38A, K53A, T63A, C76A, C127A, V153E) (ligand)
chain: B2 chain with V153E
B5: IL-18 variant SEQ ID NO: 60 with 30 kDa PEG (E6K, C38Q, K53A, C68-30kPEG) (ligand)
chain: B2 chain with I11V, A38Q, A63T, A76C, A127C
modifications: 30 kDa PEG on Cys 68 (C68-30kPEG)
notes: also called 60 + PEG
B6: IL-18 variant SEQ ID NO: 30 with 10 kDa PEG (E6K, V11I, C38A, K53A, T63A, C76A, C127A, C68-10kPEG) (ligand)
chain: B2 chain
modifications: 10 kDa PEG on Cys 68 (C68-10kPEG)
notes: also called 30 + PEG10
B7: IL-18 variant SEQ ID NO: 30 with 30 kDa PEG (E6K, V11I, C38A, K53A, T63A, C76A, C127A, C68-30kPEG) (ligand)
chain: B2 chain
modifications: 30 kDa PEG on Cys 68 (C68-30kPEG)
notes: also called 30 + PEG30; 30 + PEG
B8: IL-18 variant SEQ ID NO: 61 with 30 kDa PEG (E6K, C38A, K53A, C76A, C68-30kPEG) (ligand)
chain: B2 chain with I11V, A63T, A127C
modifications: 30 kDa PEG on Cys 68 (C68-30kPEG)
notes: also called 61 + PEG
B9: IL-18 variant SEQ ID NO: 61 (E6K, C38A, K53A, C76A) (ligand)
chain: B2 chain with I11V, A63T, A127C
B10: IL-18 variant SEQ ID NO: 62 (E6K, C38A, K53A, C127A) (ligand)
chain: B2 chain with I11V, A63T, A76C
B11: IL-18 variant SEQ ID NO: 60 (E6K, C38Q, K53A) (ligand)
chain: B2 chain with I11V, A38Q, A63T, A76C, A127C
B12: IL-18 variant SEQ ID NO: 30 with 20 kDa PEG (E6K, V11I, C38A, K53A, T63A, C76A, C127A, C68-20kPEG) (ligand)
chain: B2 chain
modifications: 20 kDa PEG on Cys 68 (C68-20kPEG)
notes: also called 30 + PEG20
B13: IL-18 variant SEQ ID NO: 59 with 30 kDa PEG (E6K, C38A, K53A, C68-30kDPEG) (ligand)
chain: B2 chain with I11V, A63T, A76C, A127C
modifications: 30 kDa PEG on Cys 68 (C68-30kDPEG)
notes: also called 59 + PEG30; 59 + PEG
B14: IL-18 variant SEQ ID NO: 57 with 30 kDa PEG (E6K, C38S, K53A, C68-30kDPEG) (ligand)
chain: B2 chain with I11V, A38S, A63T, A76C, A127C
modifications: 30 kDa PEG on Cys 68 (C68-30kDPEG)
notes: also called 57 + PEG30; 57 + PEG
B15: IL-18 variant SEQ ID NO: 63 (E6K, C38A, K53A, C76A, C127A) (ligand)
chain: B2 chain with I11V, A63T
B16: IL-18 variant SEQ ID NO: 57 (E6K, C38S, K53A) (ligand)
chain: B2 chain with I11V, A38S, A63T, A76C, A127C

Key:
[1] = molecular target: T1, IL-18 receptor (IL-18R) on HEK-Blue …; test: cell-based or functional assay
[2] = molecular target: T1, IL-18 receptor (IL-18R) on HEK-Blue …; test: cell-based or functional assay; remark: listed apart in the source
Fc fused human IL-18Rα = molecular target: T2, Fc fused human IL-18Rα; test: SPR, Fc-IL-18Rα captured, 1:1 fit
Procedure: (§1) The interaction of the wild type and of modified IL-18 polypeptides with human IL-18 receptor subunits are measured with Surface Plasmon Resonance (SPR) technology. Anti-human IgG antibodies are bound by amine coupling onto a CM5 chip to capture 6 µg/mL of Fc fused human IL-18Rα, […] of Fc fused human IL-18Rβ, or […] of Fc fused human IL-18BP isoform a (IL-18BPa) for 30 min before capture. In other settings, […] of alpha and beta IL-18 receptors are mixed and pre-incubated for 30 min before capture of the alpha/beta heterodimer IL-18 receptor.
(§2) The kinetic binding of the IL-18 analytes are measured with a Biacore 8K instrument in two fold serial dilutions starting at […] down to 0.98 nM. Regeneration of the surface back to amine coupled anti IgG antibody is done after every concentration of analyte. To measure the protein association to the receptors, the samples are injected with a flow rate of […] for 60 s, followed by 300 s buffer only to detect the dissociation. The used running buffer is 1×PBS with 0.05% Tween20. The relative response units (RU, Y-axis) are plotted against time (s, X-axis) and analyzed in a kinetic 1:1 binding model for the monomer receptor binding and for the binding to the IL-18BP. A kinetic heterogenous ligand fit model is applied for the alpha/beta heterodimer binding.

[3] = molecular target: T3, IL-18Rα/β heterodimer (Fc fused human …); test: SPR, Fc-IL-18Rα/β captured, heterogeneous ligand fit
Procedure: as §1, §2

Row | Binder | EC50, HEK-Blue IL18R reporter [1] [nM] | EC50 (read off the curve); SEAP reporter in HEK-Blue IL18R cells (OD 620 nM) [2] [pM] | Kd (Fc fused human IL-18Rα) [nM] | koff (Fc fused human IL-18Rα) [s⁻¹] | kon (Fc fused human IL-18Rα) [M⁻¹ s⁻¹] | Kd [3] [nM] | koff [3] [s⁻¹] | kon [3] [M⁻¹ s⁻¹]
1 | B1 | 2.5 | ~3 |  |  |  |  |  | 
2 | B2 |  |  | 158 | 0.0748 | 475000 | 2.2 | 0.000594 | 269000
3 | B3 | 0.08 |  |  |  |  |  |  | 
4 | B4 | 0.1 |  |  |  |  |  |  | 
5 | B5 |  |  | 345 | 0.0195 | 66300 | 13.3 | 0.000789 | 68300
6 | B6 |  |  | 239 | 0.0779 | 326000 | 8.7 | 0.00105 | 120000
7 | B7 | 0.23 |  | 770 | 0.0842 | 125000 | 15.7 | 0.000618 | 39400
8 | B8 |  |  | ~1000 | 0.0288 | 28700 | 15.5 | 0.000589 | 38100
9 | B9 | 0.084 |  | 30.4 | 0.0674 | 2.22e+06 | 1.01 | 0.0011 | 1.09e+06
10 | B10 | 0.17 |  | 63.9 | 0.0424 | 664000 | 1.24 | 0.00149 | 1.21e+06
11 | B11 | 0.203 |  | 9.85 | 0.0102 | 1.03e+06 | 0.49 | 0.000589 | 1.21e+06
12 | B12 |  |  | 379 | 0.0805 | 213000 | 5.49 | 0.000637 | 116000
13 | B13 |  |  | 352 | 0.0264 | 74600 | 8.02 | 0.00058 | 84500
14 | B14 |  |  | 701 | 0.0267 | 37900 | 23 | 0.000787 | 33800
15 | B15 | 0.0139 |  | 42.2 | 0.976 | 2.31e+07 | 0.41 | 0.000467 | 1.15e+06
16 | B16 | 0.53 |  | 75 | 0.0133 | 95200 | 2.3 | 0.000816 | 535000

From patent US20250186594A1 (BRIGHT PEAK THERAPEUTICS, published 2025)
